This passage reports IC50 (nM), TTSS-dependent cytotoxicity assay (PA103 killing of P3-X63-Ag8 myeloma cells, propidium iodide flow cytometry) and Kd results from patent publication US20100272736A1, “COMBINATION ANTIBIOTIC AND ANTIBODY THERAPY FOR THE TREATMENT OF PSEUDOMONAS AERUGINOSA INFECTION” (priority 2009, published 2010).

Assay [1] deals with PcrV on Pseudomonas aeruginosa strain PA103 (type III secretion system) (Pseudomonas aeruginosa strain PA103). Put plainly: cell-based or functional assay.
The target in assay [2] is PcrV antigen of Pseudomonas aeruginosa (recombinant PcrV) (Pseudomonas aeruginosa). Put plainly: biolayer interferometry, ForteBio Octet.

The substance Mab166 Fab registered an IC50 (nM), TTSS-dependent cytotoxicity assay (PA103 killing of P3-X63-Ag8 myeloma cells, propidium iodide flow cytometry) in assay [1] of 53 nM. For the same substance, in assay [2], the Kd was found to be 1.4 nM.
